Test results published in patent US20240315219A1, “ANIMAL MODEL FOR DISEASES ASSOCIATED WITH ABSENCE OR REDUCTION OF SOCIAL DOMINANCE, AND PHARMACEUTICAL COMPOSITION FOR PREVENTING OR TREATING DISEASES” (ADEL, Inc., priority 2021, published 2024).

Key:
C57BL/6 mice = test: Tube dominance test, lowest-ranked mouse in C57BL/6 mouse group; assay type: in vivo; conditions: lowest-ranked C57BL/6 mouse, intracerebroventricular via osmotic pump
Method: (§1) The apparatus for the tube dominance test was made of a transparent plastic tube with a length of 30 cm and an inner diameter of 2.5 cm. To allow the mice to adapt to passing through the inside of the tube, the respective mice were trained to pass across the tube alternately on both sides for two or three consecutive days. During the training period, care was taken to ensure that the mice passed through the tube as naturally as possible without causing stress. This test was performed after identifying that all mice could freely pass through the tube without stress.
(§2) During the dominance test period, a total of 2 mice, one at each end of the tube, were placed to meet in the middle of the tube. In a case where one mouse pushed the other mouse out of the tube, one (1) winning point was earned. The test was repeated three times. […] For each test, win or loss was determined by winning points.
(§3) First, starting at 1 month of age, the CRTC3 KO mice and the WT mice were housed in one group and raised together for 2 months. […] To determine changes in ranking of the mice in the group, social dominance ranking was evaluated by a tube dominance test daily for 15 days starting at 3 months of age. The respective mice in the group were tested in turn, and dominance ranking of the mice in the group was determined based on their winning points. […]

[1] = test system: CRTC3 KO primary astrocytes; test: Cell shape index (CSI) of astrocytes, GFAP immunocytochemistry; assay type: cell-based, mouse; conditions: AREG 200 ng/ml, vs WT astrocytes
Method: Next, to identify localization of CRTC3 in the cellular changes induced in astrocytes, comparison of astrocyte shape was performed between the CRTC3 KO mice and the WT mice. The shape of the cells was observed using GFAP as an astrocyte marker through fluorescent staining according to the method described in Experimental Example 1.4.
To more accurately compare the astrocyte shapes, complexity of the astrocyte shape was determined using the cell shape index (CSI) defined as follows (in the formula, P is a cell's perimeter and A is a cell's area).
Immunocytochemistry was performed as follows. First, a 12 mm coverslip (Marienfeld, Germany) coated with PDL was placed in a 24-well plate, and cells were plated thereon. Then, the cells were fixed with 4% paraformaldehyde (Biosesang, Korea) for 10 minutes. The cells were washed three times with PBS, and then subjected to permeabilization with PBS containing 0.1% Triton X-100 for 5 minutes at room temperature. The cells were washed again three times and blocked with PBS containing 5% bovine serum albumin (BSA) at 37° C. for 30 minutes. The cells were washed three times and incubated with mouse anti-GFAP antibody (Chemicon-Millipore, USA) overnight at 4° C. […] Then, each sample was mounted using a fluorescence mounting solution (DAKO, USA) for imaging.

CRTC3 KO mice [2] = test: Warm spot test; assay type: in vivo, mouse; conditions: ICV osmotic pump, before vs after
Method: The warm spot test was performed using the following apparatus and method. The test apparatus was a box with dimensions of 30 cm by 30 cm, and the bottom was kept cold by ice. A fan-shaped heating mat of approximately 3 cm was laid one corner of the bottom to warm only that part of the bottom. In the first test, the mice were placed in a box with all bottom surfaces cold and kept thereon for 30 minutes to get used to the environment. After 30 minutes, the mice were moved to a box with a heating mat on one corner of the bottom, and the time each mouse occupied the bottom surface with the heating mat was measured for 20 minutes. Based on the measured time, each mouse's ranking in the group was determined.
First, starting at 1 month of age, the CRTC3 KO mice and the WT mice were housed in one group and raised together for 2 months. This allowed social ranking to be naturally formed among the mice in the same group. To determine changes in ranking of the mice in the group, social dominance ranking was evaluated by a tube dominance test daily for 15 days starting at 3 months of age. The respective mice in the group were tested in turn, and dominance ranking of the mice in the group was determined based on their winning points. […]

CRTC3 KO mice [3] = test: Tube dominance test, CRTC3 KO mice housed with WT mice; assay type: in vivo, mouse
Method: as §1
as §2, with “points. […]” for “points.”
as §3

B1: AREG: Recombinant mouse amphiregulin from R&D Systems, SEQ ID NO: 11; EGF receptor ligand (protein, listed as Mus musculus)
chain: SVRVEQVIKPKKNKTEGEKSTEKPKRKKKGGKNGKGRRNKKKKNPCTAKFQNFCIHGECRYIENLEVVTCNCHQDYFGERCGEKSMKTHSEDDKDLSK
modifications: Mouse AREG Protein
notes: EGF receptor ligand
cages in which ranking of the lowest-ranked mouse increased after administration (C57BL/6 mice): 71%
cell shape index (CSI) [1]: increased a CSI level of the primary astrocytes in the CRTC3 KO mice to that of the WT astrocytes
social dominance ranking in warm spot test after administration (CRTC3 KO mice [2]): increased social dominance ranking
time occupying the warm spot after administration (CRTC3 KO mice [2]): increase in the time they occupied the warm spot
cages in which changes (increase) in social dominance ranking were observed after administration (CRTC3 KO mice [3]; CRTC3 KO mice with low ranking, housed with WT mice, intracerebroventricular via osmotic pump): 81%
winning points after vs before administration (CRTC3 KO mice [3]; CRTC3 KO mice, ICV osmotic pump): increase in winning points
